Our source for the Kd values is publication PMC9640981, “Plant vernalization proteins contain unusual PHD superdomains without histone H3 binding activity” (The Journal of Biological Chemistry, 2022).

This assay has as its target Arabidopsis thaliana (At) OBE1_(193-372), PHD superdomain of OBERON 1 (A. thaliana) (UniProt Q9S736). Briefly: ITC; 25 °C, iTC 200; 25 mM Tris pH 8, 150 mM NaCl, 1 mM DTT; 19 injections of 2 μl of 0.25 to 1 mM peptide into 50 μM protein.

“H3K4me2 (1–15) histone H3 tail peptide (from UniProt P68431 2-16)”: the Kd turned out to be 1900 nM.
